± gives the standard deviation of the averaged measurements.
Key:
Saccharomyces cerevisiae [1] = experiment: protein stability index of tFT-peptide fusion (C-terminal peptide) (PSI (0-1 scale)); higher = more stable (slower turnover)
Experimental: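 MPS profiling in S. cerevisiae of the tFT-X12 degron library: putative degron peptides plus stable controls, 12 aa, fused to the C-terminus of a sfGFP-mCherry timer. Cells are FACS-sorted into 8 mCherry/sfGFP bins and deep-sequenced. PSI runs from 0 (unstable) to 1 (stable). Backgrounds are wild type, das1Δ and doa10Δ at 30 °C, and wild type, das1Δ, cdc34-1 and cdc53-1 at 37 °C; 2-3 technical replicates each.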

Saccharomyces cerevisiae [2] = experiment: as above; conditions: genetic background: wild type; temperature: 30 C
[3] = genetic background: cdc34-1, temperature: 37 C
[4] = genetic background: cdc53-1, temperature: 37 C
[5] = genetic background: das1 deletion, temperature: 30 C
[6] = genetic background: das1 deletion, temperature: 37 C
[7] = genetic background: doa10 deletion, temperature: 30 C
[8] = genetic background: wild type, temperature: 30 C
[9] = genetic background: wild type, temperature: 37 C
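Also: PSI is a weighted mean of sequencing reads over stability bins, variants kept only with over 10 reads, mCherry proximal and sfGFP distal, peptide attached via GGGS linker.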

| Sequence | protein stability index (Saccharomyces cerevisiae [1]; [3]) | protein stability index (Saccharomyces cerevisiae [1]; [4]) | protein stability index (Saccharomyces cerevisiae [1]; [5]) | protein stability index (Saccharomyces cerevisiae [1]; [6]) | protein stability index (Saccharomyces cerevisiae [1]; [7]) | protein stability index (Saccharomyces cerevisiae [1]; [8]) | protein stability index (Saccharomyces cerevisiae [1]; [9]) | protein stability index (Saccharomyces cerevisiae [2]) |
| --- | --- | --- | --- | --- | --- | --- | --- | --- |
| YLAGPLARLRKF | 0.68 ± 0.046 | 0.7579 ± 0.0021 | 0.752 ± 0.027 | 0.738 ± 0.0093 | 0.716 ± 0.037 | 0.749 ± 0.041 | 0.735 ± 0.013 | 0.751 ± 0.037 |
| VILCSCSFVLRP | 0.523 ± 0.011 | 0.583 ± 0.023 | 0.373 ± 0.021 | 0.57243 ± 0.00022 | 0.362 ± 0.026 | 0.376 ± 0.02 | 0.5617 ± 0.0053 | 0.401 ± 0.0085 |
| WGLPVGVESSGG | 0.712 ± 0.03 | 0.761 ± 0.021 | 0.648 ± 0.028 | 0.761 ± 0.0095 | 0.64 ± 0.012 | 0.661 ± 0.032 | 0.733 ± 0.015 | 0.732 ± 0.03 |
| PDRSTILHISGF | 0.721 ± 0.021 | 0.7606 ± 0.001 | 0.642 ± 0.034 | 0.744 ± 0.022 | 0.644 ± 0.037 | 0.633 ± 0.0087 | 0.728 ± 0.023 | 0.699 ± 0.019 |
| LWAVGVATDWGG | 0.706 ± 0.018 | 0.7571 ± 0.0035 | 0.684 ± 0.029 | 0.768 ± 0.015 | 0.694 ± 0.021 | 0.689 ± 0.011 | 0.7513 ± 0.0075 | 0.734 ± 0.022 |
| SCLFMLFPLVSV | 0.475 ± 0.0048 | 0.505 ± 0.015 | 0.421 ± 0.031 | 0.529 ± 0.01 | 0.412 ± 0.0097 | 0.409 ± 0.033 | 0.5013 ± 0.0033 | 0.432 ± 0.0046 |
| LVVWASLVRVEG | 0.271 ± 0.033 | 0.3235 ± 0.003 | 0.252 ± 0.037 | 0.4191 ± 0.0033 | 0.2034 ± 0.00022 | 0.255 ± 0.02 | 0.389 ± 0.0079 | 0.33 ± 0.032 |
| GYRGRITRLVNG | 0.661 ± 0.03 | 0.715 ± 0.015 | 0.639 ± 0.0079 | 0.7422 ± 0.00086 | 0.14 ± 0.024 | 0.168 ± 0.021 | 0.369 ± 0.00097 | 0.29 ± 0.035 |
| FLRWRVWVVVGW | 0.187 ± 0.023 | 0.259 ± 0.024 | 0.199 ± 0.035 | 0.358 ± 0.027 | 0.18 ± 0.012 | 0.181 ± 0.021 | 0.332 ± 0.039 | 0.234 ± 0.0043 |
| FLSVPHLLFLFI | 0.608 ± 0.0063 | 0.634 ± 0.016 | 0.494 ± 0.021 | 0.619 ± 0.0054 | 0.49 ± 0.016 | 0.4689 ± 0.0032 | 0.6023 ± 0.0038 | 0.511 ± 0.017 |
| GPPPAPSPTPSP | 0.661 ± 0.035 | 0.7253 ± 0.0049 | 0.676 ± 0.021 | 0.7217 ± 0.0055 | 0.685 ± 0.014 | 0.687 ± 0.015 | 0.699 ± 0.02 | 0.732 ± 0.023 |
| DLPKAYCIEMIG | 0.6033 ± 0.0055 | 0.718 ± 0.015 | 0.613 ± 0.034 | 0.7187 ± 0.005 | 0.198 ± 0.029 | 0.215 ± 0.023 | 0.432 ± 0.02 | 0.328 ± 0.027 |
| PPPNSSTSPPCS | 0.6572 ± 0.003 | 0.725 ± 0.017 | 0.661 ± 0.036 | 0.683 ± 0.011 | 0.681 ± 0.029 | 0.687 ± 0.0096 | 0.677 ± 0.013 | 0.196 ± 0.015 |
| ARVSLSFVSVSA | 0.4168 ± 0.004 | 0.442 ± 0.012 | 0.279 ± 0.03 | 0.494 ± 0.007 | 0.225 ± 0.0052 | 0.281 ± 0.014 | 0.4672 ± 0.0023 | 0.404 ± 0.015 |
| YLVFSLCSYRFL | 0.596 ± 0.012 | 0.677 ± 0.022 | 0.511 ± 0.019 | 0.653 ± 0.011 | 0.36 ± 0.011 | 0.374 ± 0.029 | 0.549 ± 0.016 | 0.457 ± 0.033 |
| LHSDHLRIILRI | 0.5966 ± 0.0013 | 0.63 ± 0.036 | 0.567 ± 0.036 | 0.659 ± 0.036 | 0.382 ± 0.018 | 0.376 ± 0.0098 | 0.576 ± 0.022 | 0.514 ± 0.023 |
| VFVGGVSVLILF | 0.531 ± 0.051 | 0.638 ± 0.0089 | 0.438 ± 0.026 | 0.602 ± 0.0081 | 0.413 ± 0.0093 | 0.434 ± 0.033 | 0.584 ± 0.0086 | 0.516 ± 0.044 |

| Sequence | protein stability index (Saccharomyces cerevisiae [1]; [3]) | protein stability index (Saccharomyces cerevisiae [1]; [4]) | protein stability index (Saccharomyces cerevisiae [1]; [5]) | protein stability index (Saccharomyces cerevisiae [1]; [6]) | protein stability index (Saccharomyces cerevisiae [1]; [7]) | protein stability index (Saccharomyces cerevisiae [1]; [8]) | protein stability index (Saccharomyces cerevisiae [1]; [9]) | protein stability index (Saccharomyces cerevisiae [2]) |
| --- | --- | --- | --- | --- | --- | --- | --- | --- |
| EMISRNVFTYLS | 0.684 ± 0.037 | 0.755 ± 0.012 | 0.619 ± 0.034 | 0.773 ± 0.023 | 0.394 ± 0.034 | 0.42 ± 0.023 | 0.6266 ± 0.0049 | 0.473 ± 0.03 |
| AWGSWTLCVAVH | 0.0257 ± 0.0088 | 0.0323 ± 0.0061 | 0.0888 ± 0.043 | 0.0713 ± 0.01 | 0.07331 ± 0.00055 | 0.089 ± 0.027 | 0.0602 ± 0.015 | 0.151 ± 0.011 |
| TVVIFLCSYITT | 0.183 ± 0.06 | 0.24 ± 0.11 | 0.139 ± 0.015 | 0.298 ± 0.008 | 0.0829 ± 0.03 | 0.122 ± 0.04 | 0.275 ± 0.019 | 0.186 ± 0.0068 |
| GAWLAVCVVREG | 0.493 ± 0.04 | 0.568 ± 0.014 | 0.398 ± 0.023 | 0.589 ± 0.0069 | 0.37 ± 0.007 | 0.405 ± 0.021 | 0.5526 ± 0.0021 | 0.479 ± 0.022 |
| SVSMYPKPHLIC | 0.571 ± 0.057 | 0.682 ± 0.023 | 0.596 ± 0.034 | 0.698 ± 0.034 | 0.119 ± 0.015 | 0.13 ± 0.017 | 0.181 ± 0.015 | 0.243 ± 0.0026 |
| FYFLSFLLLLSP | 0.143 ± 0.0096 | 0.132 ± 0.021 | 0.182 ± 0.024 | 0.294 ± 0.0094 | 0.223 ± 0.0038 | 0.156 ± 0.035 | 0.245 ± 0.024 | 0.176 ± 0.012 |
| VYFPRLLVRVSW | 0.4489 ± 0.0015 | 0.472 ± 0.017 | 0.392 ± 0.029 | 0.508 ± 0.0082 | 0.436 ± 0.0082 | 0.377 ± 0.043 | 0.4787 ± 0.00097 | 0.407 ± 0.095 |
| SWFRRPFPPRLL | – | 0.6 ± 0.025 | 0.606 ± 0.052 | 0.67 ± 0.063 | 0.048 ± 0.068 | – | 0.0127 ± 0.018 | 0.158 ± 0.094 |
| VVLRCGCLVFIN | 0.419 ± 0.027 | 0.5767 ± 0.0053 | 0.398 ± 0.023 | 0.6443 ± 0.0057 | 0.0928 ± 0.0026 | 0.105 ± 0.017 | 0.0809 ± 0.0089 | 0.134 ± 0.051 |
| VKIEVICRVSLI | 0.334 ± 0.031 | 0.459 ± 0.028 | 0.403 ± 0.02 | 0.495 ± 0.043 | 0.338 ± 0.0092 | 0.394 ± 0.05 | 0.404 ± 0.0055 | 0.429 ± 0.024 |
| RSCKSIRGIFVC | 0.606 ± 0.068 | 0.7199 ± 0.0018 | 0.543 ± 0.018 | 0.719 ± 0.022 | 0.2 ± 0.0066 | 0.229 ± 0.02 | 0.388 ± 0.013 | 0.315 ± 0.027 |
| GSRVICMVVATM | 0.546 ± 0.044 | 0.611 ± 0.016 | 0.463 ± 0.041 | 0.6078 ± 0.0058 | 0.419 ± 0.035 | 0.436 ± 0.02 | 0.582 ± 0.0029 | 0.488 ± 0.022 |
| GGLVVYVWGRWS | 0.526 ± 0.017 | 0.592 ± 0.025 | 0.383 ± 0.016 | 0.589 ± 0.009 | 0.356 ± 0.021 | 0.377 ± 0.015 | 0.573 ± 0.023 | 0.457 ± 0.024 |
| WGLGWRGALVAV | 0.417 ± 0.0089 | 0.42 ± 0.017 | 0.321 ± 0.033 | 0.4845 ± 0.0034 | 0.269 ± 0.0084 | 0.324 ± 0.027 | 0.454 ± 0.0095 | 0.385 ± 0.062 |
| YFNGLLPLVLVF | 0.0299 ± 0.0068 | 0.0434 ± 0.004 | 0.074 ± 0.01 | 0.0623 ± 0.018 | 0.0659 ± 0.018 | 0.0601 ± 0.0082 | 0.0517 ± 0.028 | 0.0927 ± 0.049 |
| RRLYERNKNNKQ | 0.696 ± 0.024 | 0.741 ± 0.049 | 0.611 ± 0.036 | 0.729 ± 0.061 | 0.311 ± 0.019 | 0.387 ± 0.067 | 0.649 ± 0.013 | 0.435 ± 0.072 |
